Primed or numbered codes have the meaning given here. Where no end group is shown, it is not given here. [ ]: non-standard residue; d: D form. The star is where a group is joined. Pro(4-methylene) = C=C1CN[C@H](C(=O)O)C1; Pro(4,4-F2) = O=C(O)[C@@H]1CC(F)(F)CN1; Pro(4,4-Me2) = CC1(C)CN[C@H](C(=O)O)C1; Asu′ = aspartimide (aminosuccinimide); Hyp = O=C(O)[C@@H]1C[C@@H](O)CN1; dHyp = O=C(O)[C@H]1C[C@H](O)CN1; Aib = CC(C)(N)C(=O)O; OiPr = CC(C)O*
Experiment: Evaluation of dissolution stability (content change on storage in dissolved state)
Format: physicochemical
Conditions: 1 mg/1 ml dissolved state, 40° C. and RH 75%

| Substance | Day 1 content (%) | Day 3 content (%) | Day 7 content (%) | Initial content (%) |
| --- | --- | --- | --- | --- |
| 4,4-difluoro-Pro-Gly-Gln-Asp-Gly ([Pro(4,4-F2)]GQDG) [Example 43] | 86.75 | 65.09 | 48.43 | 99.47 |
| 4,4-difluoro-Pro-Gly-Gln-Asp-Gly-Leu ([Pro(4,4-F2)]GQDGL) [Example 48] | 84.40 | 76.53 | 53.82 | 92.71 |
| 4,4-difluoro-Pro-Gly-Gln-Asp-Gly-Leu-Ala ([Pro(4,4-F2)]GQDGLA) [Example 53] | 87.14 | 76.02 | 62.88 | 94.88 |
| 4,4-dimethyl Pro-Gly-Gln-Asp-Gly-Leu ([Pro(4,4-Me2)]GQDGL) [Example 56] | 84.52 | 79.98 | 51.41 | 90.94 |
| 4,4-dimethyl Pro-Gly-Gln-Asp-Gly-Leu-Ala ([Pro(4,4-Me2)]GQDGLA) [Example 57] | 75.20 | 71.82 | 53.88 | 91.95 |
| 4-methylene-Pro-Gly-Gln-Asp-Gly-Leu ([Pro(4-methylene)]GQDGL) [Example 49] | 86.53 | 79.49 | 60.01 | 94.35 |
| 4-methylene-Pro-Gly-Gln-Asp-Gly-Leu-Ala ([Pro(4-methylene)]GQDGLA) [Example 54] | 83.66 | 73.59 | 62.48 | 95.42 |
| Asu-Gly-Leu-Ala-Gly-Pro-Lys ([Asu′]GLAGPK) [Example 105] | 54.80 | 41.83 | 31.24 | 89.11 |
| D Hyp-Gly-Gln-Asp-Gly-Leu ([dHyp]GQDGL) [Example 45] | 86.74 | 69.07 | 56.03 | 94.45 |
| D Hyp-Gly-Gln-Asp-Gly-Leu-Ala ([dHyp]GQDGLA) [Example 50] | 89.44 | 80.15 | 56.11 | 96.67 |
| DGLAGP [Example 31] | 85.08 | 78.24 | 60.99 | 91.42 |
| DGLAGPK [Example 19] | 89.94 | 79.26 | 71.50 | 95.90 |
| GLAGPK [Example 26] | 89.41 | 87.99 | 85.43 | 92.17 |
| GQDGLA [Example 29] | 93.74 | 92.16 | 90.82 | 95.19 |
| Gln-Asu-Gly-Leu-Ala-Gly (Q[Asu′]GLAG) [Example 118] | 92.71 | 85.67 | 79.33 | 96.15 |
| Hyp-Ala-Gln-Asp-Gly ([Hyp]AQDG) [Example 73] | 89.07 | 82.64 | 75.49 | 92.11 |
| Hyp-Gly-D Gln-Asp-Gly ([Hyp]G[dQ]DG) [Example 58] | 98.01 | 97.85 | 97.56 | 98.03 |

| Substance | Day 1 content (%) | Day 3 content (%) | Day 7 content (%) | Initial content (%) |
| --- | --- | --- | --- | --- |
| Hyp-Gly-Gln-Aib-Gly-Leu ([Hyp]GQ[Aib]GL) [Example 84] | 97.91 | 97.29 | 96.49 | 97.78 |
| Hyp-Gly-Gln-Ala-Gly ([Hyp]GQAG) [Example 13] | 98.39 | 98.04 | 97.64 | 98.51 |
| Hyp-Gly-Gln-Ala-Gly-Leu ([Hyp]GQAGL) [Example 122] | 98.66 | 98.56 | 98.27 | 98.82 |
| Hyp-Gly-Gln-Ala-Gly-Leu-Ala ([Hyp]GQAGLA) [Example 14] | 96.58 | 96.07 | 95.55 | 97.13 |
| Hyp-Gly-Gln-Ala-Leu ([Hyp]GQAL) [Example 120] | 98.87 | 98.73 | 98.44 | 99.07 |
| Hyp-Gly-Gln-Ala-Leu-Leu ([Hyp]GQALL) [Example 123] | 99.14 | 98.98 | 98.86 | 99.26 |
| Hyp-Gly-Gln-Ala-Val ([Hyp]GQAV) [Example 119] | 96.33 | 96.18 | 95.89 | 96.39 |
| Hyp-Gly-Gln-Ala-Val-Leu ([Hyp]GQAVL) [Example 124] | 99.22 | 99.11 | 98.97 | 99.40 |
| Hyp-Gly-Gln-Asn-Gly-Leu ([Hyp]GQNGL) [Example 81] | 93.01 | 92.10 | 89.51 | 95.87 |
| Hyp-Gly-Gln-Asn-Gly-Leu-Ala ([Hyp]GQNGLA) [Example 79] | 97.87 | 81.04 | 76.89 | 94.36 |
| Hyp-Gly-Gln-Asp (isopropyl ester)-Gly ([Hyp]GQD(OiPr)G) [Example 115] | 88.57 | 82.00 | 71.64 | 92.71 |
| Hyp-Gly-Gln-Asp (isopropyl ester)-Gly (isopropyl ester) [Example 110] | 85.18 | 72.44 | 91.84 | 98.00 |
| Hyp-Gly-Gln-Asp (isopropyl ester)-Gly-Leu ([Hyp]GQD(OiPr)GL) [Example 116] | 85.82 | 84.31 | 83.50 | 88.64 |
| Hyp-Gly-Gln-Asp (isopropyl ester)-Gly-Leu (isopropyl ester) [Example 112] | 92.78 | 86.07 | 80.91 | 95.34 |
| Hyp-Gly-Gln-Asp (isopropyl ester)-Gly-Leu-Ala ([Hyp]GQD(OiPr)GLA) [Example 117] | 90.61 | 85.37 | 76.88 | 94.77 |
| Hyp-Gly-Gln-Asp (isopropyl ester)-Gly-Leu-Ala (isopropyl ester) [Example 114] | 75.01 | 56.84 | 32.74 | 84.91 |

From patent publication US12428446B2, “Peptide compound or pharmaceutically acceptable salt thereof” (Eyebio Korea, priority 2019, dated 2025)
